The target in the assay is T1, human CLEC-2 (C-type lectin-like receptor 2) (human, UniProt Q9P126 1-229).
T1 construct: whole, on cells; also called T-REx human CLEC-2 expressing 293 cells
Description: column 'CLEC-2 binding' of the summary Table 10.

T1 sequence (Q9P126 whole entry): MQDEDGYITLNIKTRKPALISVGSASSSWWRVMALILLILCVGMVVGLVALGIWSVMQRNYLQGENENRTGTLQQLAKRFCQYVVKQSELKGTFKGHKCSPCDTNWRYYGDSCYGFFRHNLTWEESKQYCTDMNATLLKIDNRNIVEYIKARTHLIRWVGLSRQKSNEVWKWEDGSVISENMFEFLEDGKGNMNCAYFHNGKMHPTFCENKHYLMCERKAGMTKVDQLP

B1: mutant rhodocytin derived from cell No. 3 (R28A and K31A) (ligand)
alpha: GLEDCDFGWSPYDQHCYQAFNEQKTWDEAEKFCRAQENGAHLASIESNGEADFVSWLISQKDELADEDYVWIGLRAQNKEQQCSSEWSDGSSVSYENLIDLHTKKCGALEKLTGFRKWVNYYCEQMHAFVCKLLPY
beta: DCPSGWSSYEGHCYKPFNEPKNWADAEAFCALQPKHSHLVSFQSAEEADFVVKLTRPRLKANLVWMGLSNIWHGCNWQWSDGARLNYKDWQEQSECLAFRGVHTEWLNMDCSSTCSFVCKFKA
modifications: α and β subunits are disulfide-linked. BN-PAGE shows a heterotrimer; each distinct subunit is given once.
notes: also called R28A, K31A
On to B1, for which the binding result is reported as “binds”.

Values taken from US20170320924A1 (UNIVERSITY OF YAMANASHI, published 2017).
